Measured values: US20150175697A1 (MacroGenics, published 2015)

How the values were obtained:
[1] = biological target: T1, human serum albumin (HSA) (human, UniProt P02768 25-609); assay: HSA binding class
T1 construct: also called HRP-human albumin

[2] = biological target: T2, soluble CD32B (sCD32B) (human, UniProt P31994 43-217); assay: SPR (BIAcore), receptor immobilised
T2 construct: extracellular domain; also called FcγRIIB; soluble CD32B ectodomain
T2 sequence (looked up): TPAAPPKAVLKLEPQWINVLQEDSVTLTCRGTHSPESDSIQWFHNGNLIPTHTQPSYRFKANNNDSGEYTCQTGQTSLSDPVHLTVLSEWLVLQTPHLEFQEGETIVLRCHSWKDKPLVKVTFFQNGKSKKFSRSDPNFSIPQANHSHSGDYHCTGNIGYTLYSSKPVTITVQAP

[3] = biological target: T3, soluble CD32A (sCD32A) (UniProt P12318 34-217, limits assumed); assay: SPR (BIAcore): sCD32A (negative control) immobilised, diabody injected for 60 s
T3 construct: extracellular domain; also called sCD32A (negative control)
T3 sequence (looked up): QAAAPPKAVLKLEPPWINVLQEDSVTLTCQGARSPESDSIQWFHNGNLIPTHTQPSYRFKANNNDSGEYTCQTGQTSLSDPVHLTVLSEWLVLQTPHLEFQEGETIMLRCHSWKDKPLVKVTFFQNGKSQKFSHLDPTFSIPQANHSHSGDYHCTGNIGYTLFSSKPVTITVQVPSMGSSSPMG

[4] = biological target: T4, soluble CD16A (sCD16A) (human, UniProt P08637 17-208); assay: SPR (BIAcore): sCD16 immobilised, diabody injected for 60 s
T4 construct: extracellular domain; given only as soluble; immobilised in SPR, plate coat or biotin/HRP-labelled probe in ELISA; also called FcγRIIIA; sCD16A-Biotin
T4 sequence (P08637 17-208): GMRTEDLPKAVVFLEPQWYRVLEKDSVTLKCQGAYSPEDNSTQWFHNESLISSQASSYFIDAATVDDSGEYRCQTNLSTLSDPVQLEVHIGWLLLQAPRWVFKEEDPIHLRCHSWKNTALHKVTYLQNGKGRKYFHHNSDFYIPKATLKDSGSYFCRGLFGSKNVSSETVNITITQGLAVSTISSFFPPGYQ

[5] = biological target: T2, soluble CD32B (sCD32B); assay: sandwich ELISA: sCD32B coated (sCD32B-Ig, 2 ug/ml), diabody titrated, labelled sCD16A as probe
[6] = biological target: T5, sCD32B-Ig (UniProt P31994 43-217); assay: sandwich ELISA, sCD32B-Ig coat, sCD16A probe
T5 construct: extracellular domain; also called CD32B-Fc; CD32-Fc; not shown: Ig/Fc part not described
T5 sequence (looked up): T2 sequence (looked up)

Binder: LAEAKVLANRELDKYGVSDYYKNGANNAKTAEGVKALIDEILAALP (other, also called 64G/65A/71A) [ABD3 L64G/I65A/V71A]
- HSA binding [1]: < 0.1

B1: h2B6 covalent monospecific diabody (CMD) (other)
chain: EIVLTQSPDFQSVTPKEKVTFTCRTSQSIGTNIHWYQQKPDQSPKLLIKEVSESISGVPSRFSGSGSGTDFTLTINSLEAEDAATYYCQQSNTWPFTFGGGTKVEIKGGGSGGGGQVQLVQSGAEVKKPGASVKVSCKASGYTFTNYWIHWVRQAPGQGLEWIGVIDPSDTYPNYNKKFKGRVTMTVVVSTSTAYMELRSLRSDDTAVYYCARNGDSDYYSGMDYWGQGTTVTVSSLGGC
modifications: covalent homodimer: two copies of this chain, disulfide-linked through the C-terminal LGGC cysteine
notes: covalent homodimer; also called h2B6 CMD; h2B6 diabody
- Kd [2]: 21 nM
- binding result [3]: no binding (tested: 100 nM)
- binding result [4]: no binding (tested: 100 nM)

B2: h3G8 covalent monospecific diabody (CMD) (other)
chain: DIVMTQSPDSLAVSLGERATINCKASQSVDFDGDSFMNWYQQKPGQPPKLLIYTTSNLESGVPDRFSGSGSGTDFTLTISSLQAEDVAVYYCQQSNEDPYTFGQGTKLEIKGGGSGGGGQVTLRESGPALVKPTQTLTLTCTFSGFSLSTSGMGVGWIRQPPGKALEWLAHIWWDDDKRYNPALKSRLTISKDTSKNQVVLTMTNMDPVDTATYYCAQINPAWFAYWGQGTLVTVSSLGGC
modifications: covalent homodimer: two copies of this chain, disulfide-linked through the C-terminal LGGC cysteine
notes: covalent homodimer; also called h3G8 CMD; h3G8 diabody
- binding result [5]: no binding (tested: 0.5 ug/ml)
- binding result [6]: no binding (tested: 0.5 µg/ml to 0.001 µg/ml)
- binding result [3]: no binding (tested: 100 nM)
